# From IntAct's records for PubMed 14681217
# B1: Integrin beta-7 (Homo sapiens), P26010 (parent)
# chain: MVALPMVLVLLLVLSRGESELDAKIPSTGDATEWRNPHLSMLGSCQPAPSCQKCILSHPSCAWCKQLNFTASGEAEARRCARREELLARGCPLEELEEPRGQQEVLQDQPLSQGARGEGATQLAPQRVRVTLRPGEPQQLQVRFLRAEGYPVDLYYLMDLSYSMKDDLERVRQLGHALLVRLQEVTHSVRIGFGSFVDKTVLPFVSTVPSKLRHPCPTRLERCQSPFSFHHVLSLTGDAQAFEREVGRQSVSGNLDSPEGGFDAILQAALCQEQIGWRNVSRLLVFTSDDTFHTAGDGKLGGIFMPSDGHCHLDSNGLYSRSTEFDYPSVGQVAQALSAANIQPIFAVTSAALPVYQELSKLIPKSAVGELSEDSSNVVQLIMDAYNSLSSTVTLEHSSLPPGVHISYESQCEGPEKREGKAEDRGQCNHVRINQTVTFWVSLQATHCLPEPHLLRLRALGFSEELIVELHTLCDCNCSDTQPQAPHCSDGQGHLQCGVCSCAPGRLGRLCECSVAELSSPDLESGCRAPNGTGPLCSGKGHCQCGRCSCSGQSSGHLCECDDASCERHEGILCGGFGRCQCGVCHCHANRTGRACECSGDMDSCISPEGGLCSGHGRCKCNRCQCLDGYYGALCDQCPGCKTPCERHRDCAECGAFRTGPLATNCSTACAHTNVTLALAPILDDGWCKERTLDNQLFFFLVEDDARGTVVLRVRPQEKGADHTQAIVLGCVGGIVAVGLGLVLAYRLSVEIYDRREYSRFEKEQQQLNWKQDSNPLYKSAITTTINPRFQEADSPTL
# Variants of: B1
# Settings: with ita4_human ITGA4, P13612
# Chain of ita4_human ITGA4, P13612 (P13612 whole entry): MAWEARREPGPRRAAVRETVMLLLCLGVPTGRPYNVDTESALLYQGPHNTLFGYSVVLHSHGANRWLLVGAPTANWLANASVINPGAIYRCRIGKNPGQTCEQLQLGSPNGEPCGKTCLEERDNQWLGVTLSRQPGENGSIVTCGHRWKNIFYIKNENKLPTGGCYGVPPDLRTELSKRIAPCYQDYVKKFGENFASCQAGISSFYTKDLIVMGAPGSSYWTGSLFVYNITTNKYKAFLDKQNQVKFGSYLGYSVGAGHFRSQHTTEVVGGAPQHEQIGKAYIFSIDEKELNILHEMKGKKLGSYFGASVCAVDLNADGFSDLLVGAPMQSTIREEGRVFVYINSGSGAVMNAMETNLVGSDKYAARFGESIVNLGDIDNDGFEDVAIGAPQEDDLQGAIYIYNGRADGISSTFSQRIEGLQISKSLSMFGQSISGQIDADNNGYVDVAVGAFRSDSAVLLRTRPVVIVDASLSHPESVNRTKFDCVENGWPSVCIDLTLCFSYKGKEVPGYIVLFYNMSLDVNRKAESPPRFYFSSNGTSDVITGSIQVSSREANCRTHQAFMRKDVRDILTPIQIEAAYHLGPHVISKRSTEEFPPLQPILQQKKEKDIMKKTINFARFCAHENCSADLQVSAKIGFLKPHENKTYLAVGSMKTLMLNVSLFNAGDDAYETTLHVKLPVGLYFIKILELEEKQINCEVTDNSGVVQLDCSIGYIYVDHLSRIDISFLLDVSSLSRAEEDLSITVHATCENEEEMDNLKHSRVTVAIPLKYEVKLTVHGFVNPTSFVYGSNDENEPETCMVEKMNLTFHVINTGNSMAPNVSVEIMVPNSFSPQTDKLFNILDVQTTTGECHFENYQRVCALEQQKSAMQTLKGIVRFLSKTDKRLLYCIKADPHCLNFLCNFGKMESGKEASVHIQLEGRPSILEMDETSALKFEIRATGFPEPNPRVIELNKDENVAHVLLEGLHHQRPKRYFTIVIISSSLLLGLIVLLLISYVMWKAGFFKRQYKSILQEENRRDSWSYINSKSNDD
row,effect of a mutation on the interaction,Variant
1,decreasing interaction,G734I
2,decreasing interaction,G730I
